# Patent US20250215403A1, “Compositions and Methods for Cardiac Tissue Regeneration” (Temple University - Of The Commonwealth System Of Higher …, priority 2022, published 2025)
# How the values were obtained:
# [1] = tested on: NRVM; assay: TUNEL apoptosis of NRVMs under hypoxic conditions; format: cell-based, rat; conditions: hypoxic conditions for 24 hours; agent alone
# [2] = tested on: cardiomyocytes (CM); assay: DNA damage response immunostaining (8-OHG, pATM) in CMs post-MI; format: in vivo, mouse; conditions: two days post-MI; compared to Luc
# Method: Mice hearts were harvested, weighed, and fixed in 4% PFA/PBS overnight on shaker and then washed with PBS for 1 hour and incubated in 30% sucrose/PBS at 4° C. for 12-18 hours. Hearts were then fixed in OCT and frozen at −80° C. (Magadum A., et al., Circulation. 2020, 141 (15): 1249-1265). Transverse heart sections (6-8 μm) were made using a cryostat. Frozen sections were rehydrated in PBS for 5-10 min followed by permeabilization with PBS with 0.1% Triton™ X100 (PBST) for 7-8 min. Heart sections were then treated with 3% H2O2 for 5 min and washed (3×5 min) with PBST. The samples were then blocked with PBS+10% Donkey normal serum+0.1% Triton™ X100 (PBSST) for 1 hour at room temperature. Primary antibodies (see complete list of primary antibodies used for this Example in Table 2 below) diluted in PBST were added and incubated overnight at 4° C. […] For immunostaining with wheat germ agglutinin (WGA) for CM size quantification, images were captured at 40× magnification, and ImageJ was used to determine the area of each cell. Quantitative analyses involved counting of multiple fields from 5-8 mouse hearts per group, and 3-4 sections/heart (˜50 cells per field assessed, for a total ˜250 cells per sample). […] BrdU positive CMs were counted in multiple fields from three independent samples per group and 3 sections/heart. The total number of CMs counted was ˜1-1.5×10^3 CMs per section. […]
molecule,measurement,setting,value
"PSAT1 modRNA: modified mRNA with N1-methylpseudouridine, transcribed in vitro, encoding phosphoserine aminotransferase 1 (ORF SEQ ID NO: 1, RNA SEQ ID NO: 2) (nucleic acid, N1-methylpseudouridine) AUGGAAGCCACCAAGCAAGUGGUUAACUUUGGGCCCGGGCCUGCCAAGCUGCCACACUCGGUAUUGUUGGAGAUCCAGAAGCAGCUACUAGACUACAGAGGACUCGGCAUCAGUGUGCUCGAAAUGAGUCACAGGUCAUCAGAUUUUGCCAAGAUUAUUGGCAAUACAGAGAAUCUUGUGAGGGAAUUGCUAGCUGUUCCCAACAACUACAAGGUGAUCUUUGUACAAGGAGGUGGGUCUGGCCAGUUCAGUGCUGUCCCCUUAAAUCUGAUUGGCCUGAAAGCUGGAAGGAGUGCUGACUACGUGGUGACCGGAGCUUGGUCAGCUAAGGCUGCGGAAGAAGCCAAGAAGUUUGGAACGGUGAACAUUGUCCACCCUAAACUUGGAAGUUACACAAAAAUUCCAGACCCAAGCACCUGGAACCUCAACCCGGACGCCUCCUAUGUAUACUUCUGUGCAAACGAGACUGUGCACGGGGUGGAGUUUGACUUCGUACCUGACGUCAAGGGAGCGGUGCUGGUCUGUGACAUGUCCUCAAACUUCUUAUCCAGGCCGGUGGAUGUUUCCAAGUUUGGUGUGAUUUUCGCUGGUGCUCAGAAGAAUGUUGGCUCUGCCGGGGUGACGGUGGUGAUUGUCCGGGAUGACCUGCUGGGGUUCUCGCUCAGAGAGUGCCCAUCAGUCCUUGACUACAAAGUGCAGGCUGGGAACAACUCUUUGUAUAACACACCUCCGUGCUUCAGCAUCUACGUCAUGGGCAUGGUCCUGGAAUGGAUCAAGAACAACGGCGGGGCCGCAGCCAUGGAGAAGCUCAGCUCCAUCAAAUCCCAAAUGAUUUAUGAGAUCAUUGAUAAUUCUCAAGGAUUUUAUGUAUGCCCAGUGGAGCGCCAGAAUAGAAGCAGGAUGAACAUCCCAUUUCGCAUUGGCAACGCCAAAGGAGACGAAGCUUUGGAAAAGCGGUUUCUUGACAAGGCGGUAGAACUCAACAUGAUCUCCUUGAAGGGGCACAGGUCAGUGGGAGGCAUUCGUGCCUCUCUGUAUAACGCUGUCACAACCGAAGACGUUGAGAAGCUGGCGGCCUUCAUGAAGAAUUUCUUGGAGAUGCAUCAGCUGUGA",NRVM / CM apoptosis (TUNEL+ CMs),[1],significantly inhibited
same,staining for nuclear 8-OHG (nuclear foci per CMs),[2],significantly lower
same,staining for pATM (nuclear foci per CMs),[2],significantly lower
